Source: a protein production outcome set (Wang et al. 2014)

Assay: label from the status in PepcDB records

Row | Sequence | protein production
1 | MGHHHHHHSHMNSCILQATVVEAPQLRYTQDNQTPVAEMVVQFPGLSSKDAPARLKVVGWGAVAQELQDRCRLNDEVVLEGRLRINSLLKPDGNREKQTELTVTRVHHLTLDSATGI | failed
2 | MAGRRRRPTTDRTIGGLSFSQRELRDLLVAWLALGLAFTFFLEREFRRIVFGQFGGLSGAEIASTFAVSLLTVGVGFLLHELAHKVVAVRFGQIAAFKADYRMLGFAVLGGLVGFLFAAPGAVVHRGRLTAKQHGLIAVAGPVTNLALAVVFLVPFFLTASMGIGGFLRELTEMGLQINLLLAGFNMLPFGPLDGRTVREWSTPVFLAVAVPSILLGVGALFVL | failed
3 | MSTAGLFSIFLIGIASNLDNAGVGIAYGIRKIRISWFNNFIIAFFGFLFTLLAGFFGNWIALFISEFTANLIGAIVLGIIGVFILCQPFLGQRNTVGSKDGNVLMGILRDPEKADFDGSKTISFSEAIVLGIALSINNIAGGFDAGITNLNLWLTATISGVFSFICISGFAYVGKRFLAEYLGKWATIIAEVLLILIGIDQLL | failed
4 | MVPPKLKQALELFKSLPKELRSQVLLEYAAKVPPPPPGVELERVHECQTPFFVHADVEGGKVRLYFHVPDEAPTVKAFAGLLREGLEGESPEAVLEVPPGFYRGYGLEEFFTPLRLRGLEAALLRLQAQVRKALTS | not failed
5 | MIIVHHLNNSRSQRILWLLEELGLPYEIKRYQRDPKTNLAPPELKAIHPLGKSPVIEDGPHVVIESGAIVDYLIRRHGDGRLQPDPASATYDEYVQWLHFAEGSAILPLMLNLYVGRLGDAGAPLHPRIHSELANYLGYLNEALGLTPYLLGDELSGADIQMSFIGEFAKMQGMLQPHPNLAAWVQRCQERPAYRQALEQGGEYSFAK | failed
6 | MSILQGILDTYAQFFDLDMWIKVLQDPVSWGLIGTLVVLEGLLSADNALVLAVMVKHLPEEKRKKALFYGLIGAYVFRFIAIGIGMFLIKLAWVKVLGALYLAWLSVKYFIDKRKGNAEEEEAHGMNQNSILFRMFGVFWGTVAMVELMDIAFSVDSVLAAFGVSNEVWILLLGGMLGILMMRGIAGVFLKLLERIPELETTAYILILIIAAKMLLSVIHIEISHTVFFIILVVAFGATFILHYMKNSGQAKEEVAATKEDNK | failed
7 | MRRCFSKITDCHLGFKNSNFLLVGSEVGSGSVTRTITTTTSERLFSSSYAAHQVDQIKDNPVSDMLIDKFGRLHTYLRISLTERCNLRCQYCMPSEGVELTPKPQLLSQSEIVRLAGLFVSAGVNKIRLTGGEPTVRKDIEEICLQLSSLKGLKNLAITTNGITLAKKLPRLKECGLDSLNISLDTLVPAKFEFLTRRKGHDRVMKSIDTAIELGYNPVKVNCVIMRGLNDDEICDFVELTRDKPINVRFIEFMPFDGNVWNVKKLVPYAEVMDKVVKRFPSIKRMQDHPTETAKNFTIDGHCGSVSFITSMTEHFCAGCNRLRLLADGNFKVCLFGPSEVSLRDPLRSGADDEALREIIGAAVKRKKAAHAGMLDIAKTANRPMIHIGG | failed
8 | MDTAIILGLLVAVFYGVGTFFAKIVCEKNPLFQWIVVNIVGIILCLIILLKYKNIIITDQKILTYAIISAVLVVIGSLLLYYALYKGKASIVVPLSSIGPAITVALSILFLKETLTLPQMIGIVLIIIGIILLSISN | failed
9 | MSKDEIKKPVVLIYCDTIEGTNIYLKKICEGLEEEGVPFQIQQVEKVEDSVEVLAQNASRNSNLGIGIGVLKNGDCALLQRRLPPNLPIQTLRGEKYDPNLYRNIGINAARLAKNLPLVFA | not failed
10 | MTYKVFIDGEAGTTGLQIRARLEGRDDIRLITLGDADRKDTRARLAAFDAADVGILCLPDAAAVEIVAQLAGTGTRLIDASTAHRVDPGWVFGFAELDNDLRARIAGGQFVSNPGCYSTGAIALLHPLVKRGLIAADQALAINAISGYSGGGKAMIAEFESGKTDGPFVYATEQRHKHLPEIVAHAGLTRQPVFVPSVGPYEQGMIVQVPLPFVEPGQGAAIEAALADHYATSRFVSVVSPDHYGARIDPRRLNGTNQLELSVHGNLDTGGAVLLALLDNLGKGASGAAVQNLNIMLGLDEGLGL | failed
11 | MEFKDYYKIMGVPRDASQDDIKRAYRKLARKYHPDVSKDPQAEARFKELGEAYEVLKDPEKRVAYDRLGTNWKADQEFRPPPDWNAGFEFSQQGFTGADAAQFSEFFESLFGRSFRAEQARRGGETHGGPGGAFFHAPGEDRYAKIMIDLEDSYHGATRTISLQVPEVDAEGHVSTREHKLNVVIPRGIRPRQYIRLAGKGAPGHGQGKAGDLYLEIEFRSHPIYRVDEHDVYLDLPVAPWEAALGATITVPTPEGMVDLKIPADSTTGRKLRLKGRGIPGKIPGDFYVVLRIVPPPATDESDKAFYRSMAEQFKSFNPRAKLGVQA | failed
12 | MDPLLVTVITTCGKVFQFHVDRRRNVGYLKKRISKEGKGFPEVDDQEILFKGEKLDDNRIIDGICKDGNSVIHLLVKKS | not failed
13 | MIEYIIGVIGLLLASVQDFRSREIEDYIWIVLAVFGILFAIYSAITLSNYSILINSISGFVICFILGYMMFLSGIGGGDGKILIGLGALVPKFQMPIYTSLGTLLNLNYIPNFPIMVFINGIFFMVFLPFVILFRNILNGARPKTGKEVILMFFGEKMKVKVAKEQKRLIMGQNDKINFFPASDDEDFSKYGDEEEIWVTPQIPLIIPITLSYLVTPIIGDRILDLLIPF | failed
14 | MSVDDSADVVVVGAGPAGSAAAAWAARAGRDVLVIDTATFPRDKPCGDGLTPRAVAELHQLGLGKWLADHIRHRGLRMSGFGGEVEVDWPGPSFPSYGSAVARLELDDRIRKVAEDTGARMLLGAKAVAVHHDSSRRVVSLTLADGTEVGCRQLIVADGARSPLGRKLGRRWHRETVYGVAVRGYLSTAYSDDPWLTSHLELRSPDGAVLPGYGWIFPLGNGEVNIGVGALSTSRRPADLALRPLISYYTDLRRDEWGFTGQPRAVSSALLPMGGAVSGVAGSNWMLIGDAAACVNPLNGEGIDYGLETGRLAAELLDSRDLARLWPSLLADRYGRGFSVARRLALLLTFPRFLPTTGPITMRSTALMNIAVRVMSNLVTDDDRDWVARVWRGGGQLSRLVDRRPPFS | failed
15 | MLGRAFQDLNRLRQISAAMARHGFGAYLERMRLRDVLGRDAPPPGQPLPPPDRTTAARFRTMLGELGPTFIKLGQLLSSRPDVLPSHWVDELEKLQDACPPVGVAEIREEIERGLGRPVEALFAALDPVPLASASIAQVHRATTHEGVQVVVKVQRPRIREQIESDLALLHDLAGLLEAVVEETGIYTPTGVMEEFDRTIHEELDFSNEARNATAMYETSAGREFLVIPRVHKALSCDTVLTLDYVEGVKVSDVTAEAGFDLEQVARNVIEASFRQLFEDGLFHGDPHPGNILVLPGNRIALLDFGLVGRLSRVQQEALVTLIVAVALRDPETVARVLNRIGVPDARAPITEFREDIRVILDRYLGLRLDEIRSATLLRDLLDLAIRHRIRIPKEYAVLAKASVTIEGIIRRLYPKLDILEVGLPYAKELLLSRFNPSDASGLVMRALLKLQGLAEDVPTQLSQILVDLEGGKFRVNVASDAIDRIGGHVRALGVLLFLGLLAAGLTVGGLVVLAGGEGLLGGLALGAAALLCAFAAAYHLATLRMRKISLRRWLKR | failed
16 | MPKKVVPEEARRRRRPTRQGAVLSEGLIVRTALRMLREHGTGGLTARRLGAALGADPSTLYRYFAGMDDLARAVGNELMGQALDGWTAQGDWRADLRSLGLALHSSYLAHPQAAVLTASRVSGRPREIAVDEAILGLLRGAGLTDRAAVRFYHAFIDLALAFAALDAGSLALPEEARRSDEDMWGTTYARLPAETHPNIAATAERLAARMPHSAYPVVLDTLLDGIAAELTGTAPEM | not failed
17 | MDLENNNNTPLTGKQAEKCAKKRKCVITLDEKQVESKRLKKEESNVEATSRPPAQSPKKRLHLNGKPMQNKDLNFKYGNYKHYYGKRILNKDFHDIRLDVLGTQPDLFRNKQLLDIGCNSGHLSIQIARKFEVKSLVGLDIDRGLINDAQKTVSHLKRHATPGQGIPHIQFVHGNYVLEDDVLLEIERPQFDVILCLSVTKWIHLNFCDSGLKQAFRRMYLQLRPGGKLILEPQSFDGYKRRKKLSEQIRDNYNAIKFRPDHFTEYLLSPEVGFAEMKLMGIPEHCKVGFKRPIQIFTKS | failed
18 | MNLHTKTWVQRLPVPIDVAWDFFSQPGNLARITPPEMMLKAEGGNAGTAIYEGMKLNFVLYPFMMIPVRWTTEIMKVSKPDFFEDRQLSGPYEQWYHRHLFRDIEGGTEMTDIVEYALPFDLFGEVVEALIVGPRLDEVFEYRRCRVAEILGEMASETRLEHHHHHH | not failed
19 | MSSPVVEIQIWSDLICPWCWIGKRRLERALRNSSLFADIKVRHRAFRLMPELIPLPVIDVLQQRYGGSAEQIVAIQQRIEKIAAEESLIYRLVGTQGADTLQAHRLLYLAHRQGLQEVLLERFYSAYFSEGTPIFDTDTLAPLALDVGLERTAVAALFAGQDFIAEIEDDQRRLQRYGANGVPFFLMDGRIAVNGAQPIEAFSDALAQLNADAASQSAFFLR | failed
20 | MAQTKRFVIAGGGRVGKQTAENLVDQGHDVLLIESDEERVEALSDAYIGPVIHGDATRPSILQQADLAEADAIAALTDEPGTNLAICMEAQQYAPSIRTIARAETEADHEYDEVVDATLLPEYLGGDHAADILTGEDIRTLVYPTADLDIIKVTVAPSAPVAGRRLDEIALPSGSLLISTADRTELAGADTVLKAEEQYILAVETDVVDEVLKLMRG | failed
21 | MKLPPGFSISVWANVPDARTMTLGDKGTVFVGSKSAGNVYAITENAGKRQIRIIASKLKMPNGVAFHDGALYVSSVNRILRFDNIENTLDQPLPPRIITADYPKETYHGWRFIAFGPDGWLYVPVGSSCNVCETDLEHYALISRIRPDGSNYEVFAKGVRNTEGFDWHPVTKALWFTDISREWMGDNLPPDELNHASNQGLDFGFPYCHGKEVSDPKLGAKRDCNKFIPPAVELDPHVAPMGMRFYTGTMFPAEYHNGIFIAEHGSWNRSTKIGYRLEWVQLEVNEVARKEIFAEGWLQENEAWGRPVDVLVMPDGALLVSDDMAGVVYRISYDQPLEHHHHHH | not failed
22 | MSDVIEGRLKELGFTLPVAAAPAANYVPFTISGNLLYVSGQLPMESGKIAVTGLVGRDVDVASAQRAAELCAVNILAQVKAALNGDLSKIRRVIKLNGFVASVPEFVEQHLVINGASNLIATVLGEPGRHARAAVGMASLPFNASVEIDAIVEIDV | not failed
23 | MDVPTPPPAEIYLAIQLPNPLSILVNYLPVSVTPIETLRGLVSTLEPTAINMDEFMTWPDFVLPETPFRTYFTLLLERGARPAIYLEGVRLACNFITVAHGLTMLSSISPIDAYACFSHGLFLTATGNGREVEAVNATFWDLVPSFEAANTVGELVMYHISRLHAEGTRLWNRSWRFVVSPDCLGRCSYGACCRNCFFYWYARELCIFY | failed
24 | MLNMSFAPTSLTVSQMSGTRTIRPLTAATLCGIAFIQDRLIAIDSIKGHLLEIDPKTDNSKILNPHQAKEFTDVTGLAVWEDNLWVTRGNSVYVSKLSSLGLEHFVTLPYSADGVAVWESTVYVSCHRLGYILIFDRDTRKEITRFYAPGVGVENLVVNGNTLWVCDRTEQTVYSMDRATGEVIFSVLTPFESPTGIAVHLDAETGKENLYVAYASEEPYIRDNPNADPNHELTYRDRTFIHPLYYHHQPDKHYALSNGYLIEMSYAEEISPLEEVYIPEVEWRIALPSETERQKIRHIEPIGIPFTEEVIDGQRVALFKFDALVPGERHIFGWKALLEVRGIKYRITPKEVENIPELSPEFQERYLVDDDDLAMDTSIVRRAAEEAVGSETNLLRKMYSIRNYVYDELSYGIKPYIDTPDIVLERGIGSCGEYVGVLLALCRLNGIPCRTVGRYKCPPQAEQQGVPLQPDFNHVWLEFYIPGFGWLPMESNPDDLGRGSQYPTRFFMGLCWYHIEIGKGVSFETISSQGKRLTKDDIPIGDLAINHIRFTIVKELPDF | failed
